Laboratory results reported in publication doi:10.1101/2024.10.04.616749, “Structural basis for a nucleoporin exportin complex between RanBP2, SUMO1-RanGAP1, the E2 Ubc9, Crm1 and the Ran GTPase” (bioRxiv, 2024).

B1: RanBP2^2300–3060 (RanBP2^RBD3–4) (domain or fragment, human, UniProt P49792 2300-3060, looked up)
chain: TQEEERDGQYFEPVVPLPDLVEVSSGEENEQVVFSHRAKLYRYDKDVGQWKERGIGDIKILQNYDNKQVRIVMRRDQVLKLCANHRITPDMTLQNMKGTERVWLWTACDFADGERKVEHLAVRFKLQDVADSFKKIFDEAKTAQEKDSLITPHVSRSSTPRESPCGKIAVAVLEETTRERTDVIQGDDVADATSEVEVSSTSETTPKAVVSPPKFVFGSESVKSIFSSEKSKPFAFGNSSATGSLFGFSFNAPLKSNNSETSSVAQSGSESKVEPKKCELSKNSDIEQSSDSKVKNLFASFPTEESSINYTFKTPEKAKEKKKPEDSPSDDDVLIVYELTPTAEQKALATKLKLPPTFFCYKNRPDYVSEEEEDDEDFETAVKKLNGKLYLDGSEKCRPLEENTADNEKECIIVWEKKPTVEEKAKADTLKLPPTFFCGVCSDTDEDNGNGEDFQSELQKVQEAQKSQTEEITSTTDSVYTGGTEVMVPSFCKSEEPDSITKSISSPSVSSETMDKPVDLSTRKEIDTDSTSQGESKIVSFGFGSSTGLSFADLASSNSGDFAFGSKDKNFQWANTGAAVFGTQSVGTQSAGKVGEDEDGSDEEVVHNEDIHFEPIVSLPEVEVKSGEEDEEILFKERAKLYRWDRDVSQWKERGVGDIKILWHTMKNYYRILMRRDQVFKVCANHVITKTMELKPLNVSNNALVWTASDYADGEAKVEQLAVRFKTKEVADCFKKTFEECQQNLMKLQKGHVSLAAELSK
notes: RanBP2 (Nup358), human, residues 2300-3060: RBD3, FG1, IR1-M-IR2, FG2 and RBD4; pET28b with a thrombin-cleavable His6 tag; no cleavage is described for the protein of the analytical gel filtration runs (it was cleaved for the SUMO conjugation assays); source: E. coli BL21(DE3) Codon Plus (RIL), purified (Ni-NTA, SEC)
B2: RanBP2^2300–2910 (RanBP2^RBD3) (domain or fragment, human, UniProt P49792 2300-2910, looked up)
chain: TQEEERDGQYFEPVVPLPDLVEVSSGEENEQVVFSHRAKLYRYDKDVGQWKERGIGDIKILQNYDNKQVRIVMRRDQVLKLCANHRITPDMTLQNMKGTERVWLWTACDFADGERKVEHLAVRFKLQDVADSFKKIFDEAKTAQEKDSLITPHVSRSSTPRESPCGKIAVAVLEETTRERTDVIQGDDVADATSEVEVSSTSETTPKAVVSPPKFVFGSESVKSIFSSEKSKPFAFGNSSATGSLFGFSFNAPLKSNNSETSSVAQSGSESKVEPKKCELSKNSDIEQSSDSKVKNLFASFPTEESSINYTFKTPEKAKEKKKPEDSPSDDDVLIVYELTPTAEQKALATKLKLPPTFFCYKNRPDYVSEEEEDDEDFETAVKKLNGKLYLDGSEKCRPLEENTADNEKECIIVWEKKPTVEEKAKADTLKLPPTFFCGVCSDTDEDNGNGEDFQSELQKVQEAQKSQTEEITSTTDSVYTGGTEVMVPSFCKSEEPDSITKSISSPSVSSETMDKPVDLSTRKEIDTDSTSQGESKIVSFGFGSSTGLSFADLASSNSGDFAFGSKDKNFQWANTGAAVFGTQSVGTQSAGKVGEDEDGSDEEVVHNEDI
notes: RanBP2 (Nup358), human, residues 2300-2910: contains only RBD3 of the two RBDs; pET28b with a thrombin-cleavable His6 tag; no cleavage is described for the analytical gel filtration runs; source: E. coli BL21(DE3) Codon Plus (RIL), purified (Ni-NTA, SEC)
B3: RanBP2^2446–3060 (RanBP2^RBD4) (domain or fragment, human, UniProt P49792 2446-3060, looked up)
chain: DSLITPHVSRSSTPRESPCGKIAVAVLEETTRERTDVIQGDDVADATSEVEVSSTSETTPKAVVSPPKFVFGSESVKSIFSSEKSKPFAFGNSSATGSLFGFSFNAPLKSNNSETSSVAQSGSESKVEPKKCELSKNSDIEQSSDSKVKNLFASFPTEESSINYTFKTPEKAKEKKKPEDSPSDDDVLIVYELTPTAEQKALATKLKLPPTFFCYKNRPDYVSEEEEDDEDFETAVKKLNGKLYLDGSEKCRPLEENTADNEKECIIVWEKKPTVEEKAKADTLKLPPTFFCGVCSDTDEDNGNGEDFQSELQKVQEAQKSQTEEITSTTDSVYTGGTEVMVPSFCKSEEPDSITKSISSPSVSSETMDKPVDLSTRKEIDTDSTSQGESKIVSFGFGSSTGLSFADLASSNSGDFAFGSKDKNFQWANTGAAVFGTQSVGTQSAGKVGEDEDGSDEEVVHNEDIHFEPIVSLPEVEVKSGEEDEEILFKERAKLYRWDRDVSQWKERGVGDIKILWHTMKNYYRILMRRDQVFKVCANHVITKTMELKPLNVSNNALVWTASDYADGEAKVEQLAVRFKTKEVADCFKKTFEECQQNLMKLQKGHVSLAAELSK
notes: RanBP2 (Nup358), human, residues 2446-3060: FG1, IR1-M-IR2, FG2 and RBD4; pET28b with a thrombin-cleavable His6 tag; no cleavage is described for the protein used in cryo-EM reconstitutions and analytical gel filtration; also called RanBP2 FG1-IR1-M-IR2-FG2-RBD4 fragment; hRanBP2^RBD4; source: E. coli BL21(DE3) Codon Plus (RIL), purified (Ni-NTA, SEC)

Columns and labels:
Settings in all cases: both partners purified
Crm1 (full-length human) [1] = target: T1, Crm1 (full-length human) (human, UniProt O14980 1-1071); test: SEC; analytical size exclusion chromatography of complexes I, II and III assembled from a RanBP2 variant, SUMO1-RanGAP1, Ubc9, Crm1 and Ran^Q69L(GTP); fractions on SDS-PAGE
T1 construct: Crm1 (exportin-1), human, full length; also called exportin Crm1; source: E. coli BL21(DE3) SoluBL21 with Codon Plus (RIL) plasmid, purified (Ni-NTA, Ulp1 cleavage, SEC, MonoQ); not shown: His6-Smt3, N-terminal, cleaved
T1 sequence (O14980 whole entry): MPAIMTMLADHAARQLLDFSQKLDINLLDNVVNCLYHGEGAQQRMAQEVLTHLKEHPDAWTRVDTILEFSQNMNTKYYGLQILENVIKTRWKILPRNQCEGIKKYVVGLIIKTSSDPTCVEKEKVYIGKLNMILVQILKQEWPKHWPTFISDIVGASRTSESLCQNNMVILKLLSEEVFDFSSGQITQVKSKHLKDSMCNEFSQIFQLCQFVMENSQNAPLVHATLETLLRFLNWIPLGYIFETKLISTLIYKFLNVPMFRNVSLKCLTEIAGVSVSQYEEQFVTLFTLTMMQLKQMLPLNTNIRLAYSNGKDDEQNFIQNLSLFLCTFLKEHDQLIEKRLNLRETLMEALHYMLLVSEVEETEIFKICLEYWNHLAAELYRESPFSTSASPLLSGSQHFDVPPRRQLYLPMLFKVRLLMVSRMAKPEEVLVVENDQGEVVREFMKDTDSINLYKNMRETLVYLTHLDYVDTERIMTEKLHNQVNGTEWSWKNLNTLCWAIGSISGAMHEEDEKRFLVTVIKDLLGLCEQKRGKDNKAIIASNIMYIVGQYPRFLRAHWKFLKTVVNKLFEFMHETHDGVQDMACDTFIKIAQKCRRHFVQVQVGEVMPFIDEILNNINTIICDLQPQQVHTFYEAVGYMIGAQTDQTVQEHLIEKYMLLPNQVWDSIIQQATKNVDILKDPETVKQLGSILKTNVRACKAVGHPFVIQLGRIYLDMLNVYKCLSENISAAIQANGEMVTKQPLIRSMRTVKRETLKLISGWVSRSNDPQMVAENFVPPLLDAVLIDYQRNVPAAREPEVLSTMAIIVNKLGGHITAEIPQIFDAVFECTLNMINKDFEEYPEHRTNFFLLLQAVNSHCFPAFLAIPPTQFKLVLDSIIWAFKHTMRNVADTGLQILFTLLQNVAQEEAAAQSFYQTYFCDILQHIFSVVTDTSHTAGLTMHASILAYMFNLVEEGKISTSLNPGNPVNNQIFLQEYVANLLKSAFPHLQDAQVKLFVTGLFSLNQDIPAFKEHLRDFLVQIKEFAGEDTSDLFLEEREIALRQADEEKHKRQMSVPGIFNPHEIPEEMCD

Ran^Q69L(GTP) = Ran^Q69L(GTP) (human, UniProt P62826 1-216, Q69L); test: as above
Crm1 (full-length human) [2] = target: T1, Crm1 (full-length human); test: cryo-EM structure; purified RanBP2^RBD4/SUMO1^Q94P-RanGAP1/Ubc9 incubated with excess Crm1 and Ran^Q69L(GTP), gel filtration in 20 mM HEPES pH 7.4, 110 mM potassium acetate, 2 mM magnesium acetate, 1 mM TCEP; lightly crosslinked with 250 uM BS3 for 30 min; 0.1% CHAPSO

Binder | binding result (Crm1 (full-length human) [1]) | binding result (Ran^Q69L(GTP)) | binding result (Crm1 (full-length human) [2])
B1 | binds | binds | –
B2 | binds | binds | –
B3 | – | binds | binds
